First the molecules themselves.
B1: 365_H06 (antibody, V domains shown)
VH: EVQLLESGGGLVQPGGSLRLSCAASGFTFSSYGMNWVRQAPGKGLEWVSGINYNSGYTGYADSVKGRFTISRDNSKNTLYLQMNSLRAEDTAVYYCARSANWHDTALDYWGQGTLVTVSS
VL: DIQMTQSPSSLSASVGDRVTITCRASQSISSYVNWYQQKPGKAPKLLIYAATSRASGVPSRFSGSGSGTDFTLTISSLQPEDFATYYCQQSYSTPLTFGGGTKVEIK
notes: VH/VL only
B2: 366_H08 (antibody, V domains shown)
VH: B1 VH with S31D, S49A, G50S, G59S, A106H
VL: B1 VL with S30L, A55H, S93N, T94N
notes: VH/VL only
B3: 366_B12 (antibody, V domains shown)
VH: B1 VH with G33S, S49A, T58K
VL: B1 VL with S30L, S31T, S93D, T94N
notes: VH/VL only
B4: 367_E07 (antibody, V domains shown)
VH: B1 VH with S31D, G33S, G50S, S55G, T58K, S99G, N101T, A106H
VL: B1 VL with S30L, L47V, S93E, T94N
notes: VH/VL only
B5: 367_D05 (antibody, V domains shown)
VH: B1 VH with S31D, G33S, G50S, S55G, T58K, G59S, S99G, N101T, A106H
VL: B1 VL with S30I, L47V, R54L, S93D, T94S
notes: VH/VL only
B6: 367_H05 (antibody, V domains shown)
VH: B1 VH with N35H, S49A, G50S, T58K, G59S, S99G, N101T, A106H
VL: not shown
notes: VH/VL only
B7: 367_E12 (antibody, V domains shown)
VH: B1 VH with N35H, S49A, G50S, S55G, G59S, S99G, N101T, A106H
VL: B1 VL with S30L, S31T, T52S, R54L, A55Q, S93N, T94S
notes: VH/VL only
B8: 365_H10 (antibody, V domains shown)
VH: B1 VH with S30D, S49A, T58K, G59S, A106H
VL: B1 VL with S30V, S31T, L47V, R54L, S93N
notes: VH/VL only
B9: 366_F07 (antibody, V domains shown)
VH: B1 VH with S31D, G33S, S49A, G59S, A106H
VL: B1 VL with S30I, S31T, V33L, S93E
notes: VH/VL only
B10: 367_A04 (antibody, V domains shown)
VH: B1 VH with G33S, G50N, T58K, G59S
VL: B1 VL with S30I, S31T, V33L, Y92D, S93D, T94S
notes: VH/VL only
B11: 366_B10 (antibody, V domains shown)
VH: B1 VH with G59S
VL: B1 VL with S30I, V33L, S93D, T94N
notes: VH/VL only
B12: 365_H11 (antibody, V domains shown)
VH: B1 VH with G33S
VL: B1 VL with S30L, S31T, V33L, S93D, T94S
notes: VH/VL only
B13: 366_G04 (antibody, V domains shown)
VH: B1 VH with G33S, G59S
VL: B1 VL with S30I, S31T, V33L, Y92D, S93D
notes: VH/VL only
B14: 367_D09 (antibody, V domains shown)
VH: B1 VH with S30D, S49A, G50S, S55G, T58K, G59S, S99G, N101T, A106H
VL: B1 VL with S30L, S31T, V33L, R54L, S93D, T94N
notes: VH/VL only
B15: 365_H12 (antibody, V domains shown)
VH: B1 VH with G33S, G50N, S55G, T58K, G59S, A106H
VL: B1 VL with S30I, S31T
notes: VH/VL only
B16: 366_B08 (antibody, V domains shown)
VH: B1 VH with S30D, G50N, S55G, T58K, A106H
VL: B1 VL with S30V, V33L, A55H, S93D, T94N
notes: VH/VL only
B17: 366_D08 (antibody, V domains shown)
VH: B1 VH with N35H, G50N, S55G, T58K, G59S, S99G, N101T, A106H
VL: B1 VL with S30L, L47V, R54L, S93E, T94N
notes: VH/VL only
B18: 367_B06 (antibody, V domains shown)
VH: B1 VH with G33S, S49A, G50N, S55G, S99G, N101T, A106H
VL: B1 VL with S30I, L47V, R54L, A55H, S93N, T94S
notes: VH/VL only
B19: 367_B08 (antibody, V domains shown)
VH: B1 VH with S31D, S55G, T58K
VL: B1 VL with S30L, S31T, V33L, L47V, S93D, T94N
notes: VH/VL only
B20: 367_B07 (antibody, V domains shown)
VH: B1 VH with S31D, G33S, S49A, A106H
VL: B1 VL with S30I, R54L, S93N, T94L
notes: VH/VL only
B21: 366_G09 (antibody, V domains shown)
VH: B1 VH with S30D, S31D, G33S, S49A, G50S, S99G, N101T, A106H
VL: B1 VL with S30L, L47V, S93D, T94L
notes: VH/VL only
B22: 367_A02 (antibody, V domains shown)
VH: B1 VH with S30D, G50S, T58K, S99G, N101T, A106H
VL: B1 VL with S30I, V33L, A51V, S93D
notes: VH/VL only
B23: 367_B03 (antibody, V domains shown)
VH: B1 VH with S49A, S55G, T58K, G59S
VL: B1 VL with S30L, S31T, V33L, R54L, S93N, T94L
notes: VH/VL only
B24: 366_F04 (antibody, V domains shown)
VH: B1 VH with S31D, S55G, G59S
VL: B1 VL with S30L, L47V, A51T, A55H, S93E, T94S
notes: VH/VL only
B25: 366_F08 (antibody, V domains shown)
VH: B1 VH with G50S, S55G, G59S, S99G, N101T, A106H
VL: not shown
notes: VH/VL only
B26: 366_D04 (antibody, V domains shown)
VH: B1 VH with G33S, S55G, G59S
VL: B1 VL with A51T, S93E
notes: VH/VL only
B27: 366_H06 (antibody, V domains shown)
VH: B1 VH with G50S, S55G
VL: B1 VL with S30L, V33L, A51T, S93D
notes: VH/VL only
B28: 367_A05 (antibody, V domains shown)
VH: B1 VH with S31D, G50S, S55G, T58K
VL: B1 VL with S30L, V33L, L47V, A51V, S93D, T94S
notes: VH/VL only
B29: 366_F05 (antibody, V domains shown)
VH: B1 VH with G33S, S49A, G50N, T58K, G59S, A106H
VL: B1 VL with S30L, S31T, V33L, Y92D, S93N
notes: VH/VL only
B30: 367_C08 (antibody, V domains shown)
VH: B1 VH with S30D, G33S, N35H, S49A, S55G, G59S, S99G, N101T, A106H
VL: B1 VL with S30L, S31T, V33L, R54L, Y92D, T94N
notes: VH/VL only
B31: 367_F09 (antibody, V domains shown)
VH: B1 VH with S30D, G33S, N35H, S49A, S55G, G59S, S99G, N101T, A106H
VL: B1 VL with S30L, S31T, V33L, R54L, Y92D, T94N
notes: VH/VL only

Substitutions are numbered along the chain they refer to.
Further: test concentration or dose not given here.

Sequence of Mouse ACVR2A (P27038 20-135 limits assumed): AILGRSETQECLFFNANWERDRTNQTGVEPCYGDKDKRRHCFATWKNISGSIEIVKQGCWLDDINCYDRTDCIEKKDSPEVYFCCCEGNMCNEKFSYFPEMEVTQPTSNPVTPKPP

The target in the first experiment is T1, Goat anti-Human Kappa.
T1 construct: Positive control; also called biotinylated goat anti-human kappa light chain
The experiment can be described thus: ELISA; positive control. As for the experimental part: (§1) The binding of ACVR2A-specific monoclonal antibodies to human ACVR2A, mouse ACVR2A, biotinylated goat anti-human kappa light chain (positive control) and human Fc (negative control) were determined by ELISA.
For orientation: ELISA stands for enzyme-linked immunosorbent assay.
As to B1, the optical density was found to be 3.44 OD.

Molecule B2 registered an optical density of 3.55 OD.

B3 registered an optical density of 3.44 OD.

Consider B4, for which the optical density is 3.21 OD.

B5 registered an optical density of 3.34 OD.

B6 returned an optical density of 3.59 OD.

For B7, the optical density was 3.71 OD.

The molecule B8 registered an optical density of 3.51 OD.

Take B9: the optical density was found to be 3.47 OD.

With B10, the optical density was determined as 3.3 OD.

As to B11, the optical density stood at 3.06 OD.

As to B12, the optical density was determined as 3.61 OD.

Turning to B13, the optical density was found to be 3.29 OD.

Molecule B14 returned an optical density of 3.37 OD.

The molecule B15 registered an optical density of 3.78 OD.

For B16, the optical density came to 3.05 OD.

As for B17, the optical density was 3.65 OD.

The molecule B18 yielded an optical density of 3.02 OD.

Molecule B19 registered an optical density of 3.03 OD.

Molecule B20 returned an optical density of 3.34 OD.

With B21, the optical density amounted to 3.44 OD.

B22 yielded an optical density of 3.58 OD.

In turn, B23 displayed an optical density of 3.44 OD.

In the case of B24, the optical density amounted to 3.37 OD.

B25 gave an optical density of 3.47 OD.

As to B26, the optical density was 3.46 OD.

B27 had an optical density of 3.39 OD.

In the case of B28, the optical density stood at 3.38 OD.

On to B29, for which the optical density was 3.25 OD.

Consider B30, for which the optical density amounted to 3.05 OD.

The molecule B31 came in with an optical density of 3.46 OD.

The next experiment has as its target Mouse ACVR2A (mouse, UniProt P27038 20-135, limits assumed). Put plainly: ELISA. As to the method: as §1
For the molecule B1, the optical density stood at 2.46 OD.

As for B2, the optical density was 2.77 OD.

B3 came in with an optical density of 2.99 OD.

In the case of B4, the optical density amounted to 2.06 OD.

B5: the optical density was 1.37 OD.

For B6, the optical density came out at 2.7 OD.

B7 showed an optical density of 2.91 OD.

In turn, B8 came in with an optical density of 2.82 OD.

B9 had an optical density of 2.53 OD.

The molecule B10 came in with an optical density of 2.2 OD.

Take B11: the optical density was 2.44 OD.

In turn, B12 registered an optical density of 3.35 OD.

As for B13, the optical density was 2.18 OD.

Turning to B14, the optical density amounted to 2.04 OD.

B15 registered an optical density of 2.91 OD.

With B16, the optical density was 2.38 OD.

Consider B17, for which the optical density is 2.46 OD.

B18 showed an optical density of 1.89 OD.

B19 gave an optical density of 2.25 OD.

Molecule B20 had an optical density of 1.49 OD.

In the case of B21, the optical density stood at 2.04 OD.

B22: the optical density was 2.42 OD.

Take B23: the optical density amounted to 2.66 OD.

As for B24, the optical density was 1.91 OD.

As to B25, the optical density is 2 OD.

In turn, B26 had an optical density of 2.12 OD.

Molecule B27 yielded an optical density of 2.59 OD.

Molecule B28 gave an optical density of 2.38 OD.

As for B29, the optical density was 2.67 OD.

Consider B30, for which the optical density was determined as 1.22 OD.

As to B31, the optical density amounted to 1.82 OD.

The target of the next experiment is T2, Human ACVR2A (human, UniProt P27037 20-135, limits assumed).
T2 construct: also called activin receptor, type II A
T2 sequence (P27037 20-135 limits assumed): as the sequence (P27038 20-135 limits assumed) above, with R20K, I73V counted along it
Put plainly: ELISA. As for the experimental part:
as §1
The molecule B1 yielded an optical density of 2.24 OD.

Take B2: the optical density stood at 2.59 OD.

As for B3, the optical density turned out to be 3.24 OD.

As to B4, the optical density came out at 1.94 OD.

Turning to B5, the optical density was found to be 1.26 OD.

Molecule B6 returned an optical density of 2.44 OD.

As to B7, the optical density turned out to be 2.69 OD.

In turn, B8 returned an optical density of 2.68 OD.

Consider B9, for which the optical density turned out to be 2.39 OD.

B10 showed an optical density of 2.14 OD.

As to B11, the optical density came out at 2.33 OD.

B12: the optical density was found to be 3.24 OD.

Molecule B13 registered an optical density of 1.85 OD.

Consider B14, for which the optical density was determined as 2.15 OD.

B15 displayed an optical density of 2.97 OD.

B16 returned an optical density of 2.15 OD.

Molecule B17 showed an optical density of 2.17 OD.

B18 showed an optical density of 1.82 OD.

In the case of B19, the optical density was 2.13 OD.

Take B20: the optical density was found to be 1.42 OD.

In the case of B21, the optical density is 1.85 OD.

Consider B22, for which the optical density is 2.23 OD.

The molecule B23 returned an optical density of 2.48 OD.

With B24, the optical density came out at 1.73 OD.

B25 returned an optical density of 1.86 OD.

On to B26, for which the optical density is 2.08 OD.

As for B27, the optical density turned out to be 2.29 OD.

Molecule B28 yielded an optical density of 2.22 OD.

B29 gave an optical density of 2.19 OD.

For the molecule B30, the optical density was 1.12 OD.

B31 had an optical density of 1.79 OD.

Source of the values: patent US20210380703A1 (RIGEL PHARMACEUTICALS, published 2021).
